Tested on: peptide library, one residue held at a place counted from the S/T acceptor
Assay: relative phosphorylation of the sub-library (ratio to the mean residue at this position); higher = residue favoured
Details: human
Method in brief: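 Human or orthologue kinase constructs, purified and recombinant, were incubated under kinase-specific conditions in 384-well plates with biotinylated degenerate peptide sub-libraries. Each sub-library fixed one residue at one position around a central Ser/Thr. Incubations lasted 90 min with peptides at 50 μM and 50 μM ATP spiked with γ-32P-ATP, after which spots on streptavidin membranes were phosphorimaged and quantified by densitometry. Relative sub-library phosphorylation is a ratio to the mean residue at that position.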

Chain of ERN2, construct: aa490-end (Q76MJ5 490-926, looked up): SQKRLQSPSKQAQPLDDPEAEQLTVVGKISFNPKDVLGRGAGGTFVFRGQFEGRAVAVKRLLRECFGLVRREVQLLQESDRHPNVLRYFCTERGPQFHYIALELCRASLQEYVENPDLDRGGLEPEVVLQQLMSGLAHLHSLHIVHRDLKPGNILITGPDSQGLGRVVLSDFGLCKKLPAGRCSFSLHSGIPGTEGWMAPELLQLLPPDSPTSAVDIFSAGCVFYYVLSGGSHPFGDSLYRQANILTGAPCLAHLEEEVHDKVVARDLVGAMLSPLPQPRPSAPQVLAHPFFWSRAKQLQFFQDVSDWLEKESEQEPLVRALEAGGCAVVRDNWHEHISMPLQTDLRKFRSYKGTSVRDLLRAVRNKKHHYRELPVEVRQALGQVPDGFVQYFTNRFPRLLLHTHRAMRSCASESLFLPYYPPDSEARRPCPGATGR
Chain of IRAK1, construct: aa186-530 (P51617 186-530, looked up): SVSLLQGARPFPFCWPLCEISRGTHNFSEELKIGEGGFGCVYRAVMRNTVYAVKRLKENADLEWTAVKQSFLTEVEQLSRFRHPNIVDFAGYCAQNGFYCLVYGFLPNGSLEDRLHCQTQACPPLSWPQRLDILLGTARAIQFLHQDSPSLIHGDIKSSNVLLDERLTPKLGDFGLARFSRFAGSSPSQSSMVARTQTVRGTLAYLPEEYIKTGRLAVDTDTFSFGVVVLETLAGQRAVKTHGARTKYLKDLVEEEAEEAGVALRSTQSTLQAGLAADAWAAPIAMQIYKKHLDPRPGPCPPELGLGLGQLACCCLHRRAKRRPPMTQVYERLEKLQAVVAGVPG
Chain of CSNK1G2, construct: aa43-353 (P78368 43-353, looked up): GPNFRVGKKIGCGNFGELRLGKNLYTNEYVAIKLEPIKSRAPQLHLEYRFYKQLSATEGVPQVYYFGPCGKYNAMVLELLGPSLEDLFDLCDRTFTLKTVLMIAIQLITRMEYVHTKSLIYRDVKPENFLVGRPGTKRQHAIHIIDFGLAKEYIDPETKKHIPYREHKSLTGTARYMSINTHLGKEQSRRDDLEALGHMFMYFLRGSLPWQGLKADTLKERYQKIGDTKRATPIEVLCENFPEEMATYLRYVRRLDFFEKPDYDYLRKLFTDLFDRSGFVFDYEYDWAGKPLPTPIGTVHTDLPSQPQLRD

CSNK1G2, construct: aa43-353 (from UniProt P78368)
relative phosphorylation
Details | at +1 | at +2 | at +3 | at +4 | at -1 | at -2 | at -3 | at -4 | at -5
A fixed | 0.721 | 0.84 | 0.944 | 0.864 | 1.07 | 1.17 | 0.642 | 1.13 | 0.845
D fixed | 0.589 | 0.43 | 1.14 | 1.31 | 1.52 | 1.2 | 4.54 | 1.46 | 2.48
E fixed | 1 | 0.999 | 0.339 | 1.25 | 2.85 | 4.44 | 2.79 | 1.85 | 1.89
F fixed | 0.973 | 1.33 | 1.29 | 0.996 | 0.834 | 0.524 | 0.55 | 0.896 | 0.82
G fixed | 0.636 | 0.516 | 1.23 | 0.746 | 0.797 | 0.686 | 0.705 | 0.767 | 0.79
H fixed | 0.986 | 1.21 | 1.59 | 0.806 | 0.904 | 0.682 | 0.652 | 0.861 | 0.886
I fixed | 1.88 | 1.32 | 1.08 | 0.961 | 0.902 | 0.666 | 0.465 | 0.694 | 0.875
K fixed | 0.517 | 0.942 | 0.54 | 0.702 | 0.774 | 0.659 | 0.891 | 0.877 | 0.968
L fixed | 1.55 | 0.605 | 0.944 | 1 | 1.02 | 0.656 | 0.458 | 0.842 | 0.76
M fixed | 1.36 | 1.3 | 1.09 | 1.03 | 0.484 | 0.594 | 0.561 | 0.817 | 0.799
N fixed | 0.672 | 0.875 | 0.732 | 0.797 | 0.807 | 1.18 | 0.766 | 0.858 | 0.859
P fixed | 0.44 | 0.537 | 0.738 | 0.947 | 0.965 | 0.876 | 0.577 | 1.05 | 0.745
Q fixed | 0.592 | 0.618 | 0.61 | 0.936 | 1.03 | 1.04 | 0.707 | 1.03 | 1
R fixed | 0.813 | 0.996 | 0.687 | 0.684 | 1.11 | 0.695 | 0.895 | 1.02 | 0.961
V fixed | 1.94 | 1.46 | 1.29 | 1.17 | 0.766 | 0.813 | 0.44 | 0.733 | 0.686
W fixed | 0.852 | 1.34 | 1.27 | 1.35 | 0.589 | 0.5 | 0.652 | 1.15 | 0.821
Y fixed | 1.47 | 1.68 | 1.49 | 1.45 | 0.569 | 0.619 | 0.711 | 0.971 | 0.816
pThr fixed | 1.33 | 1.36 | 2.58 | 3.98 | 3.89 | 9.46 | 62.6 | 8.08 | 4.7
pTyr fixed | 2.52 | 5.33 | 19.2 | 6.91 | 2.93 | 6.96 | 8.28 | 6.71 | 6.32

IRAK1, construct: aa186-530 (from UniProt P51617)
relative phosphorylation
Details | at +1 | at +2 | at +3 | at +4 | at -1 | at -2 | at -3 | at -4 | at -5
A fixed | 0.864 | 0.732 | 0.528 | 0.839 | 0.549 | 1.22 | 1.05 | 0.838 | 0.984
D fixed | 0.289 | 0.355 | 0.361 | 0.391 | 0.359 | 0.433 | 0.405 | 0.63 | 0.557
E fixed | 0.435 | 1.03 | 0.316 | 0.501 | 0.236 | 0.423 | 0.57 | 0.668 | 0.629
F fixed | 1.34 | 0.929 | 1.71 | 0.843 | 1.69 | 1.07 | 1.02 | 1.17 | 1.09
G fixed | 1.28 | 0.501 | 0.55 | 0.766 | 0.4 | 0.801 | 0.874 | 0.846 | 1.01
H fixed | 0.703 | 1.2 | 0.889 | 1.13 | 1.34 | 1.12 | 1.55 | 1.08 | 1.3
I fixed | 2.14 | 2.49 | 1.84 | 1.27 | 0.864 | 1.08 | 1.19 | 1.29 | 1.38
K fixed | 0.885 | 0.442 | 0.719 | 1.32 | 0.789 | 0.64 | 1.02 | 1.06 | 1.01
L fixed | 1.25 | 0.867 | 1.22 | 1.13 | 0.847 | 1.67 | 1.11 | 1.09 | 0.973
M fixed | 1.59 | 1.07 | 1.56 | 1.17 | 1.02 | 1.78 | 1.43 | 1.08 | 1.12
N fixed | 0.604 | 0.781 | 0.558 | 0.806 | 0.776 | 1.47 | 0.918 | 1.33 | 0.973
P fixed | 0.159 | 0.336 | 0.221 | 0.969 | 0.287 | 0.495 | 0.464 | 0.559 | 0.696
Q fixed | 1.08 | 0.734 | 0.567 | 0.766 | 0.527 | 0.957 | 0.954 | 0.813 | 0.845
R fixed | 1.05 | 0.633 | 1.04 | 1.75 | 1.53 | 1.16 | 1.5 | 0.988 | 1.29
V fixed | 1.69 | 1.95 | 1.07 | 0.745 | 0.863 | 0.788 | 0.849 | 1.16 | 1.07
W fixed | 0.854 | 1.37 | 2.17 | 1.54 | 2.85 | 0.745 | 0.9 | 1.11 | 0.809
Y fixed | 0.799 | 1.58 | 1.69 | 1.06 | 2.08 | 1.13 | 1.21 | 1.27 | 1.27
pThr fixed | 0.544 | 0.539 | 0.403 | 0.473 | 0.484 | 0.857 | 0.765 | 1.09 | 0.722
pTyr fixed | 0.357 | 0.562 | 0.482 | 0.464 | 0.522 | 0.756 | 1.19 | 0.831 | 0.843

ERN2, construct: aa490-end (from UniProt Q76MJ5)
relative phosphorylation
Details | at +1 | at +2 | at +3 | at +4 | at -1 | at -2 | at -3 | at -4 | at -5
A fixed | 0.889 | 0.315 | 0.399 | 0.712 | 1.08 | 0.826 | 0.865 | 0.986 | 0.969
D fixed | 0.292 | 0.208 | 0.22 | 0.365 | 0.7 | 0.969 | 0.947 | 0.892 | 0.961
E fixed | 0.428 | 0.217 | 0.165 | 0.347 | 1.19 | 1.29 | 1.02 | 0.918 | 0.87
F fixed | 0.683 | 0.733 | 1.24 | 0.849 | 0.953 | 0.865 | 0.676 | 0.677 | 0.695
G fixed | 1.16 | 0.332 | 0.407 | 0.844 | 0.758 | 1.11 | 1.32 | 1.04 | 1.01
H fixed | 0.924 | 0.767 | 1.27 | 1.08 | 1.6 | 1.08 | 1.17 | 1.17 | 1.24
I fixed | 0.78 | 1.09 | 1.22 | 1.04 | 0.459 | 0.672 | 0.792 | 0.732 | 0.796
K fixed | 2.19 | 2.21 | 1.39 | 1.94 | 0.955 | 1.43 | 1.12 | 1.53 | 1.6
L fixed | 0.702 | 1.39 | 1.38 | 0.935 | 0.58 | 0.592 | 0.66 | 0.693 | 0.691
M fixed | 1.24 | 1.32 | 0.95 | 0.996 | 0.951 | 0.814 | 0.861 | 0.751 | 0.704
N fixed | 0.997 | 0.507 | 0.441 | 0.763 | 0.986 | 1.1 | 1.21 | 1.38 | 1.17
P fixed | 0.247 | 0.305 | 0.346 | 1.15 | 1.47 | 1.37 | 1.09 | 0.914 | 0.915
Q fixed | 1.44 | 0.787 | 0.591 | 1.04 | 1.42 | 1.25 | 1.27 | 1.14 | 1.14
R fixed | 2.95 | 2.57 | 3.56 | 1.81 | 0.94 | 1.5 | 1.42 | 1.57 | 1.78
V fixed | 0.809 | 1.16 | 0.669 | 0.86 | 0.927 | 0.732 | 0.776 | 0.759 | 0.704
W fixed | 0.572 | 0.72 | 1.45 | 1.21 | 0.798 | 0.651 | 0.875 | 0.994 | 0.893
Y fixed | 0.694 | 2.36 | 1.3 | 1.04 | 1.23 | 0.769 | 0.941 | 0.858 | 0.858
pThr fixed | 0.298 | 0.212 | 0.237 | 0.355 | 0.355 | 0.648 | 0.798 | 0.779 | 0.732
pTyr fixed | 0.286 | 0.235 | 0.283 | 0.296 | 0.692 | 0.694 | 0.652 | 0.474 | 0.562
